Like-named read-outs stand apart in the source and are kept apart here.
Legend:
[1] = target: T1, N-HisPurβ (Purine-rich element binding protein B) (UniProt O35295 1-324); assay: competition
T1 sequence: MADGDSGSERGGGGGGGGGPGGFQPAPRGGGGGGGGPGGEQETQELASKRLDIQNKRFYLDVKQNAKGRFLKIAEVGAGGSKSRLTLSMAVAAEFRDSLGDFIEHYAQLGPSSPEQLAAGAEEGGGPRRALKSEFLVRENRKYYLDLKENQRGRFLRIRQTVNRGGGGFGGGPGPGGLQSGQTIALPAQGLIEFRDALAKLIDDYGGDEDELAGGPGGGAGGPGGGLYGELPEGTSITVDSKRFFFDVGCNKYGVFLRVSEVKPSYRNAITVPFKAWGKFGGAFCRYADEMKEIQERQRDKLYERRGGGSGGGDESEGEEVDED

[2] = target: T1, N-HisPurβ (Purine-rich element binding …); assay: competition; remark: listed apart in the source
[3] = target: T1, N-HisPurβ (Purine-rich element binding …); assay: competition; remark: listed apart in the source
[4] = target: T1, N-HisPurβ (Purine-rich element binding …); assay: EMSA
[5] = target: T1, N-HisPurβ (Purine-rich element binding …); assay: competition; remark: listed apart in the source
[6] = target: T1, N-HisPurβ (Purine-rich element binding …); assay: competition; remark: listed apart in the source
[7] = target: T1, N-HisPurβ (Purine-rich element binding …); assay: competition; remark: listed apart in the source

TTTTTTTGAACAGAGGAATGCAGTTTTTTTTA (ssDNA) [PE32-F-35T7] was tested, and the binding signal [1] was > 50 fold IC50 increase vs PE32-F.

GGGAGCAGAACAGTTTTTTTCAGTGGAAGAGA (ssDNA) [PE32-F-IT7]: binds [2].

GGGAGCAGAACAGAGGAATGCAGTGGAAGAGA (ssDNA) [PE32-F (PE32-F*, PE32-bF, PE32-F-3FLC)] was tested, and the binding signal [3] was 1 fold IC50 (reference) and the Kd [4] was roughly 300 pM.

TTTTTTTGAACAGTTTTTTTCAGTTTTTTTTA (ssDNA) [PE32-F-3I5T7]: no binding [5].

In the case of TTTTTTTGAACAGAGGAATGCAGTGGAAGAGA (ssDNA) [PE32-F-5T7], the binding signal [6] is reported as ~4 fold IC50 increase vs PE32-F.

TTTTTTTTTTTTTTTTTTTTTTTTTTTTTTTT (ssDNA) [dT32]: no binding [7].

GGGAGCAGAACAGAGGAATGCAGTTTTTTTTA (ssDNA) [PE32-F-3T7]: binds [2].

Source: PMC2752054
